From paper PMC4898653 (2017) come the findings set out here.

The target in one test is kallikrein-6 (Homo sapiens, UniProt Q92876). The test can be described thus: enzyme inhibition.
The next test concerns the target cationic trypsin (Homo sapiens, UniProt P07477). The test can be described thus: enzyme inhibition.
The next test addresses factor XIa (Homo sapiens, UniProt P03951). Kind of test: enzyme inhibition.
The target of another test is T1, anionic trypsin (Homo sapiens, UniProt P07478).
T1 chain: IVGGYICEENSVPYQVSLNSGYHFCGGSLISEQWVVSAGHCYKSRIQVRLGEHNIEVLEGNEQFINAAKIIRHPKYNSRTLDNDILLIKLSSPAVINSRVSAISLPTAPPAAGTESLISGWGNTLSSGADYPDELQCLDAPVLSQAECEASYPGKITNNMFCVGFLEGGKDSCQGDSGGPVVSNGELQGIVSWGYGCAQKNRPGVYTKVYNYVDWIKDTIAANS
The test can be described thus: enzyme inhibition.

The target of the next test is T2, mesotrypsin (Homo sapiens, UniProt P35030).
T2 chain: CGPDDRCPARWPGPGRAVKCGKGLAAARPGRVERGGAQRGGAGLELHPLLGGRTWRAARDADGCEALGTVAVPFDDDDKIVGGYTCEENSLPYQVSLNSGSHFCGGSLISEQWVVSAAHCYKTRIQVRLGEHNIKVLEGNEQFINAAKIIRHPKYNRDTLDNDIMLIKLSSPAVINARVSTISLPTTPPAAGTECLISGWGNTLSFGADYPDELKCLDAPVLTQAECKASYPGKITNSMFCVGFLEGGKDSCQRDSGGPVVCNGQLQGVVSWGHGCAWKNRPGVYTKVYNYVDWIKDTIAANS
Kind of test: competitive inhibition of Z-GPR-pNA cleavage.

Chain of factor XIa (P03951 388-625): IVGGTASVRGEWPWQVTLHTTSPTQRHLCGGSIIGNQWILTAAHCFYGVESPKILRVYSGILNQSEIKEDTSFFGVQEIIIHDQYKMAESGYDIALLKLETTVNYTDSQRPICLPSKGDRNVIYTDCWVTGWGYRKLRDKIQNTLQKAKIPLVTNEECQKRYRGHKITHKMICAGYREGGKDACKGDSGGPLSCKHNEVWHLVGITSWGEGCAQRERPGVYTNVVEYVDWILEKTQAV

B1: APPI Kunitz domain (protein)
chain: VREVCSEQAETGPCRAMISRWYFDVTEGKCAPFFYGGCGGNRNNFDTEEYCMAVCGSA
In the case of B1, the Ki with kallikrein-6 was 2.23 nM; with cationic trypsin, 0.00627 nM; in the test with factor XIa it was 0.41 nM; with anionic trypsin, 0.00174 nM; with mesotrypsin it was 131 nM.
